Columns and labels:
[1] = molecular target: T1, human PD-L1 expressed on CHO cells (human, UniProt Q9NZQ7 19-290); experiment: FACS, CHO cells
T1 construct: whole, on cells; also used for human PD-L1 on Raji cells in the reporter assay; also called cell surface PD-L1; Raji-PD-L1 cells

[2] = molecular target: T2, human CD40 expressed on CHO cells (human, UniProt P25942 21-277); experiment: FACS, CHO cells
T2 construct: whole, on cells; also used for the reporter cells over-expressing human CD40; also called cellular CD40; CHO-CD40 cells
T2 sequence (P25942 21-277): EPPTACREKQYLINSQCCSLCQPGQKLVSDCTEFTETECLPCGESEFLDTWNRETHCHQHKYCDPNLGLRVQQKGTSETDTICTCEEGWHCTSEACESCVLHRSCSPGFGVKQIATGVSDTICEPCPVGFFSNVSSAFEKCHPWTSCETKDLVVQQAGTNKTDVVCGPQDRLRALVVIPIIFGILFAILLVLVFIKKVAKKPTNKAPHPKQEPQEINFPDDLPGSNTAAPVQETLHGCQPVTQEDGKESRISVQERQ

[3] = molecular target: T3, Human PD-L1 ECD protein (mouse IgG2a Fc tag) (human, UniProt Q9NZQ7 19-238); experiment: bridging ELISA, coated CD40 ECD-His, soluble PD-L1 ECD-mFc
T3 construct: extracellular domain; also called recombinant human PD-L1; not shown: mouse IgG2a Fc tag
T3 sequence (Q9NZQ7 19-238): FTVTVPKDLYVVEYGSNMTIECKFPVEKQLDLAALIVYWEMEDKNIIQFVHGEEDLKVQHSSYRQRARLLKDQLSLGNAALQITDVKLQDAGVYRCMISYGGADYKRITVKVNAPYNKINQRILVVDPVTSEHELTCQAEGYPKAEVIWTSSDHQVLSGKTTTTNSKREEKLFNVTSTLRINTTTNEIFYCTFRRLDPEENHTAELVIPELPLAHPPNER

[4] = molecular target: T4, Ly090 (human CD40 ECD protein with His tag) (human, UniProt P25942 21-193); experiment: as above
T4 construct: extracellular domain; also called human CD40 ECD protein (His tag); recombinant human CD40; not shown: His tag
T4 sequence (P25942 21-193): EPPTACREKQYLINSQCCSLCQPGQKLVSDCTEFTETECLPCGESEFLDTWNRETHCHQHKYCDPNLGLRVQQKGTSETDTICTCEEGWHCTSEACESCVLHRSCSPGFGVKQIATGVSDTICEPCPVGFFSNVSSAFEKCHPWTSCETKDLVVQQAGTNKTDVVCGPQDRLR

Measured: binding result

T1 sequence (Q9NZQ7 19-290): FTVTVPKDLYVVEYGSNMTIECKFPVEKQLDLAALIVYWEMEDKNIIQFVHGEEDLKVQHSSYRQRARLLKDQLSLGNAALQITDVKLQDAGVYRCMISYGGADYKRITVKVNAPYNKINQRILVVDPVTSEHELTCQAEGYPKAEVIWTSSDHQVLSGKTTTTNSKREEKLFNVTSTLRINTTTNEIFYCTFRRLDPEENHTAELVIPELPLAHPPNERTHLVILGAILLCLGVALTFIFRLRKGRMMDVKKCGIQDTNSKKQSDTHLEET

B1: Ly350 (bispecific antibody, human IgG1, kappa)
heavy: QVQLVQSGAEVKKPGASVKVSCKASGYTFTDFWMSWVRQAPGQGLEWMGQIYPNTGTTHSNEKFKGRVTMTRDTSTSTVYMELSSLRSEDTAVYYCARSYHISTTPNWFAYWGQGTLVTVSSASTKGPSVFPLAPSSKSTSGGTAALGCLVKDYFPEPVTVSWNSGALTSGVHTFPAVLQSSGLYSLSSVVTVPSSSLGTQTYICNVNHKPSNTKVDKKVEPKSCDKTHTCPPCPAPELLGPSVFLFPPKPKDTLMISRTPEVTCVVVDVSHEDPEVKFNWYVDGVEVHNAKTKPREEQYNSTYRVVSVLTVLHQDWLNGKEYKCKVSNKALPAPIEKTISKAKGQPREPQVYTLPPSREEMTKNQVSLTCLVKGFYPSDIAVEWESNGQPENNYKTTPPVLDSDGSFFLYSKLTVDKSRWQQGNVFSCSVMHEALHNHYTQKSLSLSPG
light: DIQMTQSPSSLSASVGDRVTITCKASQNVYKKLEWYQQKPGKVPKVLIYHTNILQTGVPSRFSGSGSGTDYTLTISSLQPEDVATYYCYQWNSGPTFGGGTKVEIKRTVAAPSVFIFPPSDEQLKSGTASVVCLLNNFYPREAKVQWKVDNALQSGNSQESVTEQDSKDSTYSLSSTLTLSKADYEKHKVYACEVTHQGLSSPVTKSFNRGECGGGGSGGGGSGGGGSGGGGSDIQMTQSPSSLSASVGDRVTITCLASEDISNDLAWYQQKPGKAPKLLIYFVDRLLDGVPSRFSGSGSGTDFTLTISSLQPEDFATYYCQQSYKYPPTFGQGTKLEIKGGGGSGGGGSGGGGSGGGGSEVQLVESGGGLVQPGGSLRLSCAASGFTFTNYGLHWVRQAPGKGLEWVSSISPSGGVTYYRDSVKGRFTISRDNSKNTLYLQMNSLRAEDTAVYYCAKPFLGWGGANWIAHWGQGTLVTVSS
notes: Ly076 HC (IgG1 mutated Fc) + Ly076 LC-TM559 scFv VL-VH
binds: [1] | [2] | [3] | [4]

B2: Ly303 (bispecific antibody, human IgG1, kappa)
heavy: QVQLVQSGAEVKKPGASVKVSCKASGYTFTDFWMSWVRQAPGQGLEWMGQIYPNTGTTHSNEKFKGRVTMTRDTSTSTVYMELSSLRSEDTAVYYCARSYHISTTPNWFAYWGQGTLVTVSSASTKGPSVFPLAPSSKSTSGGTAALGCLVKDYFPEPVTVSWNSGALTSGVHTFPAVLQSSGLYSLSSVVTVPSSSLGTQTYICNVNHKPSNTKVDKKVEPKSCDKTHTCPPCPAPELLGPSVFLFPPKPKDTLMISRTPEVTCVVVDVSHEDPEVKFNWYVDGVEVHNAKTKPREEQYNSTYRVVSVLTVLHQDWLNGKEYKCKVSNKALPAPIEKTISKAKGQPREPQVYTLPPSREEMTKNQVSLTCLVKGFYPSDIAVEWESNGQPENNYKTTPPVLDSDGSFFLYSKLTVDKSRWQQGNVFSCSVMHEALHNHYTQKSLSLSPGGGGGSGGGGSGGGGSGGGGSDIQMTQSPSSLSASVGDRVTITCLASEDISNDLAWYQQKPGKAPKLLIYFVDRLLDGVPSRFSGSGSGTDFTLTISSLQPEDFATYYCQQSYKYPPTFGQGTKLEIKGGGGSGGGGSGGGGSGGGGSEVQLVESGGGLVQPGGSLRLSCAASGFTFTNYGLHWVRQAPGKGLEWVSSISPSGGVTYYRDSVKGRFTISRDNSKNTLYLQMNSLRAEDTAVYYCAKPFLGWGGANWIAHWGQGTLVTVSS
light: DIQMTQSPSSLSASVGDRVTITCKASQNVYKKLEWYQQKPGKVPKVLIYHTNILQTGVPSRFSGSGSGTDYTLTISSLQPEDVATYYCYQWNSGPTFGGGTKVEIKRTVAAPSVFIFPPSDEQLKSGTASVVCLLNNFYPREAKVQWKVDNALQSGNSQESVTEQDSKDSTYSLSSTLTLSKADYEKHKVYACEVTHQGLSSPVTKSFNRGEC
notes: Ly076 HC (IgG1 mutated Fc)-TM559 scFv VL-VH + Ly076 LC
binds: [1] | [2] | [3] | [4]

B3: Ly340 (bispecific antibody, human IgG1, kappa)
heavy: QVQLVQSGAEVKKPGASVKVSCKASGYTFTDFWMSWVRQAPGQGLEWMGQIYPNTGTTHSNEKFKGRVTMTRDTSTSTVYMELSSLRSEDTAVYYCARSYHISTTPNWFAYWGQGTLVTVSSASTKGPSVFPLAPSSKSTSGGTAALGCLVKDYFPEPVTVSWNSGALTSGVHTFPAVLQSSGLYSLSSVVTVPSSSLGTQTYICNVNHKPSNTKVDKKVEPKSCDKTHTCPPCPAPELLGPSVFLFPPKPKDTLMISRTPEVTCVVVDVSHEDPEVKFNWYVDGVEVHNAKTKPREEQYNSTYRVVSVLTVLHQDWLNGKEYKCKVSNKALPAPIEKTISKAKGQPREPQVYTLPPSREEMTKNQVSLTCLVKGFYPSDIAVEWESNGQPENNYKTTPPVLDSDGSFFLYSKLTVDKSRWQQGNVFSCSVMHEALHNHYTQKSLSLSPGGGGGSGGGGSGGGGSGGGGSEVQLVESGGGLVQPGGSLRLSCAASGFTFTNYGLHWVRQAPGKGLEWVSSISPSGGVTYYRDSVKGRFTISRDNSKNTLYLQMNSLRAEDTAVYYCAKPFLGWGGANWIAHWGQGTLVTVSSGGGGSGGGGSGGGGSGGGGSDIQMTQSPSSLSASVGDRVTITCLASEDISNDLAWYQQKPGKAPKLLIYFVDRLLDGVPSRFSGSGSGTDFTLTISSLQPEDFATYYCQQSYKYPPTFGQGTKLEIK
light: DIQMTQSPSSLSASVGDRVTITCKASQNVYKKLEWYQQKPGKVPKVLIYHTNILQTGVPSRFSGSGSGTDYTLTISSLQPEDVATYYCYQWNSGPTFGGGTKVEIKRTVAAPSVFIFPPSDEQLKSGTASVVCLLNNFYPREAKVQWKVDNALQSGNSQESVTEQDSKDSTYSLSSTLTLSKADYEKHKVYACEVTHQGLSSPVTKSFNRGEC
notes: Ly076 HC (IgG1 mutated Fc)-TM559 scFv VH-VL + Ly076 LC
binds: [1] | [2] | [3] | [4]

Source: US20220372155A1 (LYVGEN BIOPHARMA, published 2022)
